The labels stand for the following.
B1: Unc5D (splice variant of the mouse Unc5D gene) (receptor)
chain: ARGADGSEILPDSIPSAPGTLPHFIEEPEDAYIIKSNPIALRCKARPAMQIFFKCNGEWVHQNEHVSEESLDESSGLKVREVFINVTRQQVEDFHGPEDYWCQCVAWSHLGTSKSRKASVRIAYLRKNFEQDPQGREVPIEGMIVLHCRPPEGVPAAEVEWLKNEEPIDSEQDENIDTRADHNLIIRQARLSDSGNYTCMAANIVAKRRSLSATVVVYVNGGWSSWTEWSACNVRCGRGWQKRSRTCTNPAPLNGGAFCEGMSVQKITCTALCPVDGSWEVWSEWSVCSPECEHLRIRECTAPPPRNGGKFCEGLSQESENCTDGLCILDKKPLHEIKPQSIENASDIALYSGLGAAVVAVAVLVIGVTLYRRSHSDYGVDVIDSSALTGNSLLLNPAMQPDLTVSRTYSGPICLQDPLDKELMTESSLFNPLSDIKVKVQSSFMVSLGVSERAEYHGKNHSGTFPHGNNRGFSTIHPRNKTPYIQNLSSLPTRTELRTTGVFGHLGGRLVMPNTGVSLLIPHGAIPEENSWEIYMSINQGEPSLQSDGSEVLLSPEVTCGPPDMLVTTPFALTIPHCADVSSEHWNIHLKKRTQQGKWEEVMSVEDESTSCYCLLDPFACHVLLDSFGTYALTGEPITDCAVKQLKVAVFGCMSCNSLDYNLRVYCVDNTPCAFQEVISDERHQGGQLLEEPKLLHFKGNTFSLQVSVLDIPPFLWRIKPFTACQEVPFSRVWSSNRQPLHCAFSLERYTPTTTQLSCKICIRQLKGHEQILQVQTSILESERETITFFAQEDSTFPAQTGPKAFKIPYSIRQRICATFDTPNAKGKDWQMLAQKNSINRNLSYFATQSSPSAVILNLWEARHQQDGDLDSLACALEEIGRTHTKLSNITEPQIDDADFNYSRQNGL
B2: soluble alkaline phosphatase-FLRT3 ectodomain fusion protein (AP-FLRT3ΔTM) (domain or fragment, Xenopus, UniProt Q70AK3 29-527, looked up)
chain: KPCPSVCRCDAGFIYCNDRDLTSIPSGIPDDATTLYLQNNQINNAGIPSDLKGLDKVERIYLYRNSLDEFPINLPKNVKELHLQENNIRTITYDALLQIPFIEELHLDDNSVSAVSIEDGAFRDNIFLRLLFLSRNHLSTIPWGLPKTIEELRLDDNRISTISEISLQDLTNLKRLVLDGNLLNNNGLGERVFMNLINLTELSLVRNSLTSPPANLPGTSLRKLYLQENHMNYVPPNSFADLTQLYRLDMSNNNLTALPQGIFDDLDNLTQLFLRNNPWYCGCKMKWVRDWLQSLPSKVNVRGLMCQAPERVRGMTIKDLNKELFDCKDRIGSNTIHVTTTMLNSLLPAQGQWPVPVTKQPEIRPPDINKIFRTTPIPVKKIITIQVKSITTETIYISWKVALPMTALRLSWQLGHSPVFGSITETIVTGDRAEYLLTALEPESPYRICMVPMETGNIYLSDETPVCIETETAPLKMYNPTTTLNREQEKEPYKNSSLP
notes: FLRT3, Xenopus, ectodomain (ΔTM); also called AP-tagged FLRT3ΔTM; source: conditioned medium, concentrated

In assay [1] the target is B2. The assay is described as follows: equilibrium binding of an alkaline phosphatase fusion protein to transfected cells, binding curves and Scatchard analysis; different amounts of concentrated AP-FLRT3ΔTM conditioned medium on transfected cells, 1 h at RT; washed with PBS containing 0.2 M NaCl; cells lysed; AP activity read at 405 nm, normalised to cell number. Particulars: partners not purified.

The target of assay [2] is T1, Xenopus Unc5B (Xenopus, UniProt Q8JGT4 31-943).
T1 construct: Netrin receptor Unc5B, Xenopus; Constructs are in Text S1; source: HEK293T, transfected, on cells
Described as above. Particulars: partners not purified.

T1 sequence (Q8JGT4 31-943): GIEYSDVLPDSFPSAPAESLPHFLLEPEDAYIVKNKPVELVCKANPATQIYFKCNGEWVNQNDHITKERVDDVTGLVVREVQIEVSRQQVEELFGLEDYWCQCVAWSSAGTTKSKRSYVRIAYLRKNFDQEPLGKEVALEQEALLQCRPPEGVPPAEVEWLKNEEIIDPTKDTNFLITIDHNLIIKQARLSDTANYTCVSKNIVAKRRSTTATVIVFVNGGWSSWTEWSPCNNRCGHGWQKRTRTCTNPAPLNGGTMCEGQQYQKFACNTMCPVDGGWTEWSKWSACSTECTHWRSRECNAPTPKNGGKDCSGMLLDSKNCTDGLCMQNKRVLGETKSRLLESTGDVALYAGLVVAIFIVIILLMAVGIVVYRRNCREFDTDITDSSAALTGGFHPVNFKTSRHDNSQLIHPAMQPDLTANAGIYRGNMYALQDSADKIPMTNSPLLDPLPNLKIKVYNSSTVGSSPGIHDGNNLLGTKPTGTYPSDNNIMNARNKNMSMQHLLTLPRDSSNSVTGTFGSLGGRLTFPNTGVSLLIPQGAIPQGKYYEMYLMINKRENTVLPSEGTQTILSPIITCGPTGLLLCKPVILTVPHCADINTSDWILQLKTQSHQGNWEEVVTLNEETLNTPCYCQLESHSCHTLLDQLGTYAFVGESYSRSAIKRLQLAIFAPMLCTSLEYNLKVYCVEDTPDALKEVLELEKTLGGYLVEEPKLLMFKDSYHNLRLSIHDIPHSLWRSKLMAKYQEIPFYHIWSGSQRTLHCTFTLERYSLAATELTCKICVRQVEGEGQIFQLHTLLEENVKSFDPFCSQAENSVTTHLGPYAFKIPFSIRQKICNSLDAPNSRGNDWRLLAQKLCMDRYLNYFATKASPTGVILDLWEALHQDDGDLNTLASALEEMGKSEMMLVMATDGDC

As to B1, the Kd (in general, the constant that tells how readily two partners part at equilibrium) in assay [1] worked out at 26 nM.

In the case of B2, binding in assay [2] was characterised by a dissociation constant (Kd) of 50 nM.

For the origin of these results see paper PMC2683942, “Unc5B Interacts with FLRT3 and Rnd1 to Modulate Cell Adhesion in Xenopus Embryos” (PLoS ONE, 2009).
